Assays:
Test in all cases: Kinase Profiling Assay
Assay type in all cases: biochemical
Conditions in all cases: 100 μM
Met(M1268T) (h) = Met(M1268T) (h) (Homo sapiens, UniProt P08581, M1250T)
Summary of the method: (§1)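 Each kinase activity was measured in duplicate. Phosphorylation of a positively charged substrate with radiolabeled phosphate from ATP was captured on a negatively charged filter, counted by scintillation and expressed relative to a 100% activity control. MK2 inhibitory peptides were screened for specificity across 266 human kinases.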

PDGFRα (h) = target: T1, PDGFRα (h) (Homo sapiens, UniProt P16234)
T1 construct: purchased Millipore
T1 sequence (P16234 24-1089): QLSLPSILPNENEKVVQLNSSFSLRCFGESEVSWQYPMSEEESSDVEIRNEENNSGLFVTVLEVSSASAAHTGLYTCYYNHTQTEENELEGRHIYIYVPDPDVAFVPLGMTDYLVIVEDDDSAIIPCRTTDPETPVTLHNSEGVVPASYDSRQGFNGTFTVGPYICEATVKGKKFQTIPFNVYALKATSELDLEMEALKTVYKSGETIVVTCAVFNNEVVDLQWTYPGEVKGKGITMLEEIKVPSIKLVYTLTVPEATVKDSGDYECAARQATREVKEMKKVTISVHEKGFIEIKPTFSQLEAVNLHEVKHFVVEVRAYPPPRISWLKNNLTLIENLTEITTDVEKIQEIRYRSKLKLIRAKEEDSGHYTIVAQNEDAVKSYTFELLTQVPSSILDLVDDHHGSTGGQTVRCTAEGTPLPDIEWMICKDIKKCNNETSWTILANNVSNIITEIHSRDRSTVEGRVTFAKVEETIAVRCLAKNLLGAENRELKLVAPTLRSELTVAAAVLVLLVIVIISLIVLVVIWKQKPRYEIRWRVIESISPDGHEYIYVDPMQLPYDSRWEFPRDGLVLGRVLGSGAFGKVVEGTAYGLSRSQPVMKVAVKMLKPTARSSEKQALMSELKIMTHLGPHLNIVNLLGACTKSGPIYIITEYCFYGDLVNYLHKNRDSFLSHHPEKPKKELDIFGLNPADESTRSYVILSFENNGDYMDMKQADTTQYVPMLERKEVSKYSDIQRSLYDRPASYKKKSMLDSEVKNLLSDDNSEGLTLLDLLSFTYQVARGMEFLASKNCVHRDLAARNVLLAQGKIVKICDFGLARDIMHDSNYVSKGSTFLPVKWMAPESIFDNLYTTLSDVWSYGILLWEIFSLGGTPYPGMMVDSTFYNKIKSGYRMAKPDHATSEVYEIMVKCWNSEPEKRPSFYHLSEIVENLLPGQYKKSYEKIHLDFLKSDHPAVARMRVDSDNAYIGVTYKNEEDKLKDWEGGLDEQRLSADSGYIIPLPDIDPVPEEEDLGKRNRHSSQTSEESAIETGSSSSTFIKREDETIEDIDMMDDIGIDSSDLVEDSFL
Summary of the method: as §1

Ret (V804L) (h) = Ret (V804L) (h) (Homo sapiens, UniProt P07949, V804L)
Summary of the method: as §1

Ros (h) = Ros (h) (Homo sapiens, UniProt P08922)
Chain of Ros (h) (P08922 28-2347): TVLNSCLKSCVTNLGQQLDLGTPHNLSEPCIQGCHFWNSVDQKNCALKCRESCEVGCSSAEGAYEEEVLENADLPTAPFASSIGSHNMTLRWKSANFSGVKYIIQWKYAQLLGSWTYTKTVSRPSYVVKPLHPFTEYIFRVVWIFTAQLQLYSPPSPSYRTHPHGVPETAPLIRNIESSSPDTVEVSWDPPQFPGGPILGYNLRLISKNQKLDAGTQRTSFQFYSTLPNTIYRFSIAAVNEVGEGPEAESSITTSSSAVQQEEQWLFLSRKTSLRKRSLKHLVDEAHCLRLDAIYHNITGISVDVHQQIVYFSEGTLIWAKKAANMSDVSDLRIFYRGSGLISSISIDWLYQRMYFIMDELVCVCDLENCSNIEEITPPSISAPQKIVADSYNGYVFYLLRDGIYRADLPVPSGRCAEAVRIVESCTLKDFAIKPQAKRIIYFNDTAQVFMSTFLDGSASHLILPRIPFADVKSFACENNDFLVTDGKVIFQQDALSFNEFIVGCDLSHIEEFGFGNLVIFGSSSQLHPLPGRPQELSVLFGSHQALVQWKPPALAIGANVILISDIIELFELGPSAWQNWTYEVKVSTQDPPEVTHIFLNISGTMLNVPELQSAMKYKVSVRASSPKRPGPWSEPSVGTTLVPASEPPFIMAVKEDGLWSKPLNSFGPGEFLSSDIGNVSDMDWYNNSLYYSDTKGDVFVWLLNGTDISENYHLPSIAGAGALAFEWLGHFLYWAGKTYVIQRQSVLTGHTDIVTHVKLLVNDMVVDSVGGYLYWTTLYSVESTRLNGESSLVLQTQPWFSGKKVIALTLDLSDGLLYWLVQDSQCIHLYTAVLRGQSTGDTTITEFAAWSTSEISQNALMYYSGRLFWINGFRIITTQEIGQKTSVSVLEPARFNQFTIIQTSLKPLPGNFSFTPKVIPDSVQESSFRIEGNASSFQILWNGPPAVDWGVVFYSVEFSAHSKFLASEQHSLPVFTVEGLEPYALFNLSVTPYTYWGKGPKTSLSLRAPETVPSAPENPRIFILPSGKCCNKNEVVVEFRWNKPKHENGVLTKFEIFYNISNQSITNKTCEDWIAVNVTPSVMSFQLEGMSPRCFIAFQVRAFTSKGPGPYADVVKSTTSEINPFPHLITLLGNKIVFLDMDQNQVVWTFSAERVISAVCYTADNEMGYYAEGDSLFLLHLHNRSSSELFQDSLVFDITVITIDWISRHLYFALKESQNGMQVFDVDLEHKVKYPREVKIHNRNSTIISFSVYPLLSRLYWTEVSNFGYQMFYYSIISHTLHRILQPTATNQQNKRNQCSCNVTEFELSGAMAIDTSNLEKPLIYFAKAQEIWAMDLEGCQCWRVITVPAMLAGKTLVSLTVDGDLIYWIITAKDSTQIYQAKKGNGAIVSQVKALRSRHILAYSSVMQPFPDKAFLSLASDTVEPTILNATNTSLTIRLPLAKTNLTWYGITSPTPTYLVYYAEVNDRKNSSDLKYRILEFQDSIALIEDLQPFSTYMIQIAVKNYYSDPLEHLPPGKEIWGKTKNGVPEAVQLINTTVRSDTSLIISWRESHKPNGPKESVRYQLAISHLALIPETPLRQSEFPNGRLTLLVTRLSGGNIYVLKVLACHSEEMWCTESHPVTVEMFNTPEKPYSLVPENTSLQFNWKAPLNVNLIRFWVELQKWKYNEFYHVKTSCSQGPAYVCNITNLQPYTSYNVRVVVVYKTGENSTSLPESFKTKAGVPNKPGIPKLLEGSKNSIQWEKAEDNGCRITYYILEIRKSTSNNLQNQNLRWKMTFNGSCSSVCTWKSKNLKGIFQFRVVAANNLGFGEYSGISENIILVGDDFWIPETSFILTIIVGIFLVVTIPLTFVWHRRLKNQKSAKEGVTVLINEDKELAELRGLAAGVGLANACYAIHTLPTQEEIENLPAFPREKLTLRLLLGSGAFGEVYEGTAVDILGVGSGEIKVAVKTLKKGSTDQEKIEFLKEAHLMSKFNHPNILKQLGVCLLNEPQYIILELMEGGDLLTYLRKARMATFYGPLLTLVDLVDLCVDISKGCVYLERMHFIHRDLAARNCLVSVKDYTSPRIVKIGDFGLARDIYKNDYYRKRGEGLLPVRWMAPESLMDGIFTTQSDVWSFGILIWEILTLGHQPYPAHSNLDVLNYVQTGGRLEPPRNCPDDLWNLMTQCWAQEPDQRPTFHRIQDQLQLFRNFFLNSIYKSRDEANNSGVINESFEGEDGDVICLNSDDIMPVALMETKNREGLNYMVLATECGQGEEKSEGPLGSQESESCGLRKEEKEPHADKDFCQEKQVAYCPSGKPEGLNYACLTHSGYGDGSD
Summary of the method: as §1

EphB4 (h) = target: T2, EphB4 (h) (Homo sapiens, UniProt P54760)
T2 sequence (P54760 16-987): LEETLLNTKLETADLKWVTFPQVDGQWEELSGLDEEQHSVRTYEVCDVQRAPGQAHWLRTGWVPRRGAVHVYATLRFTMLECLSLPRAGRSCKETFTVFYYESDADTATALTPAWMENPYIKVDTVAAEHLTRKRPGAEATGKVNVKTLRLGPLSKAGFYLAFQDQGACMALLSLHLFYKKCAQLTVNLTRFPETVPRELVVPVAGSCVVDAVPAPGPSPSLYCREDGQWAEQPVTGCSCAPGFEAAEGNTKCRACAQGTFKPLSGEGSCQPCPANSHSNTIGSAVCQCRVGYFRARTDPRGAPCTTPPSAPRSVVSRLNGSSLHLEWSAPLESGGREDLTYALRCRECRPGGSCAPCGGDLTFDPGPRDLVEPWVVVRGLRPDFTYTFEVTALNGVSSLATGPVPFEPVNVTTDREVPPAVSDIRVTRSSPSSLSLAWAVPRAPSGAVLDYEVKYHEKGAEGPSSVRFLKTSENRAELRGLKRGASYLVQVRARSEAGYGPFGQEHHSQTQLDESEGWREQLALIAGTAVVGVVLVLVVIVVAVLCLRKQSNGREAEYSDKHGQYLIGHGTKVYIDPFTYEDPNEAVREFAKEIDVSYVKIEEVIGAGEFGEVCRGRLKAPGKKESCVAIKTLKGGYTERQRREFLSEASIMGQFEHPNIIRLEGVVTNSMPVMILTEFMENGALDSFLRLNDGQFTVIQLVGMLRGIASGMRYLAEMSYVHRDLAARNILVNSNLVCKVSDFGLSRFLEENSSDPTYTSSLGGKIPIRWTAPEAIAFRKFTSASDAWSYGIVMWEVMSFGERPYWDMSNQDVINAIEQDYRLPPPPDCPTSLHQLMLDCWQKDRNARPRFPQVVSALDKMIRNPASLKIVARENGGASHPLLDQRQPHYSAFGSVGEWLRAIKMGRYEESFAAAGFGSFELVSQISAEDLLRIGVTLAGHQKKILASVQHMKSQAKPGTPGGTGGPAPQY
Summary of the method: as §1

Fyn (h) = target: T3, Fyn (h) (Homo sapiens, UniProt P06241)
T3 construct: purchased Millipore
T3 sequence (P06241 whole entry): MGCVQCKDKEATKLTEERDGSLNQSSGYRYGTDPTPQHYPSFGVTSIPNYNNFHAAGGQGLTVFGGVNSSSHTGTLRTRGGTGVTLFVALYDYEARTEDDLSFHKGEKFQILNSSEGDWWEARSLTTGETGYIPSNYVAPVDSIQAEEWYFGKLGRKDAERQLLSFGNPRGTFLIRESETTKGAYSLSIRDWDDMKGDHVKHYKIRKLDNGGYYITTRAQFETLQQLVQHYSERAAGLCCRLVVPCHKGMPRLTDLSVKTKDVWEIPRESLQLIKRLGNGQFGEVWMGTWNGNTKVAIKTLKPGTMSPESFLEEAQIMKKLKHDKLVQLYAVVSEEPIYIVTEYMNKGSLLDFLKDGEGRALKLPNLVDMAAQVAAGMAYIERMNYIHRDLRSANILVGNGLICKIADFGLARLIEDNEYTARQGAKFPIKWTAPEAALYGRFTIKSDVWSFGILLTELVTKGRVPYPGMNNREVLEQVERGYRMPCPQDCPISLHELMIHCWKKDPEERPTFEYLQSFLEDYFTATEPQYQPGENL
Summary of the method: as §1

PKCδ (h) = target: T4, PKCδ (h) (Homo sapiens, UniProt Q05655)
T4 construct: purchased Millipore
T4 sequence (Q05655 whole entry): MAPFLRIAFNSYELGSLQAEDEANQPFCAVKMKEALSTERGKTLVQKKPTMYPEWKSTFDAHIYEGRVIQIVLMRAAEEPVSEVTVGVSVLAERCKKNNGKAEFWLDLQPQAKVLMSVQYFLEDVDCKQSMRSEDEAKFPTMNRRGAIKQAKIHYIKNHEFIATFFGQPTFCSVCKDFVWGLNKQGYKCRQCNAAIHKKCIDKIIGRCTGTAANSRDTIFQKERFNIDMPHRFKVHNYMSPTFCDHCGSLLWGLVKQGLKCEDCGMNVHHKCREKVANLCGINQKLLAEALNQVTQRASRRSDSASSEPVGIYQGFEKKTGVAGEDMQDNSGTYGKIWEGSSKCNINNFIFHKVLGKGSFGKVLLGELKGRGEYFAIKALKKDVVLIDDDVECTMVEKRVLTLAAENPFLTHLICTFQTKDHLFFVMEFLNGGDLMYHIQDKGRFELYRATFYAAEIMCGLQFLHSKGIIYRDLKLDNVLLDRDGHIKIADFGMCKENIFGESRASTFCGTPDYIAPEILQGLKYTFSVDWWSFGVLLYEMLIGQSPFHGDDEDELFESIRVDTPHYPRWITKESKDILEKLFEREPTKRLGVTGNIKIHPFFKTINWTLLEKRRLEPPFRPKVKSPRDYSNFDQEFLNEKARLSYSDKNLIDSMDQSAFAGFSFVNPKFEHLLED
Summary of the method: as §1

CaMKIV (h) = target: T5, CaMKIV (h) (Homo sapiens, UniProt Q16566)
T5 construct: purchased Millipore
T5 sequence (Q16566 1-473): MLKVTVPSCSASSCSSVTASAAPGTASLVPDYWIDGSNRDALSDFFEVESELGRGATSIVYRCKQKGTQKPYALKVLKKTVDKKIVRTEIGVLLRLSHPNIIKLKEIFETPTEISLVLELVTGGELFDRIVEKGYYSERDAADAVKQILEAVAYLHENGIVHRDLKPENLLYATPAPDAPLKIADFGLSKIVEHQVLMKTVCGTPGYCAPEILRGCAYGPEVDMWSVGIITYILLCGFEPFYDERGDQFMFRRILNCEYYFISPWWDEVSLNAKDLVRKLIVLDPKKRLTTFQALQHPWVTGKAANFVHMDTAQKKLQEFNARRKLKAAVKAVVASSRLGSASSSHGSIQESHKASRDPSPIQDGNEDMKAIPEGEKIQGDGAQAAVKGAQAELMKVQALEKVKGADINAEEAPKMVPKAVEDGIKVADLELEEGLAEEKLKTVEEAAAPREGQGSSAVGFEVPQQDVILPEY
Summary of the method: as §1

Row | Sequence | % activity (Met(M1268T) (h)) | % activity (PDGFRα (h)) | % activity (Ret (V804L) (h)) | % activity (Ros (h)) | % activity (EphB4 (h)) | % activity (Fyn (h)) | % activity (PKCδ (h)) | % activity (CaMKIV (h))
1 | FAKLAARLYRKALARQLGVAA [MMI-0300] | 255% | 65% | 79% | 95% | 44% | 74% | 101% | 17%
2 | HRRIKAWLKKIKALARQLGVAA (Mammalian) [MMI-0500] | 239% | 40% | 20% | 150% | 38% | 83% | 61% | −1%
3 | KAFAKLAARLYRKALARQLGVAA [MMI-0400] | 265% | 40% | 73% | 99% | 28% | 54% | 90% | 18%
4 | YARAAARQARAKALNRQLGVA (Mammalian) [MMI-0200] | 143% | 108% | 100% | 86% | 131% | 75% | 101% | 71%

Reference: patent US10500249B2, “Compositions and methods for preventing or treating diseases, conditions, or processes characterized by aberrant fibroblast proliferation and extracellular matrix deposition” (MOERAE MATRIX, INC., priority 2014, dated 2019)
